{"source": "paper doi:10.1101/2021.02.17.431743", "about": "(bioRxiv, 2021)", "proteins": {"B1": {"name": "HeV-RBP full ectodomain (head domain with intact stalk domain), dimeric fraction after gradient fixation (domain or fragment)", "chain": "QNYTRTTDNQALIKESLQSVQQQIKALTDKIGTEIGPKVSLIDTSSTITIPANIGLLGSKISQSTSSINENVNDKCKFTLPPLKIHECNISCPNPLPFREYRPISQGVSDLVGLPNQICLQKTTSTILKPRLISYTLPINTREGVCITDPLLAVDNGFFAYSHLEKIGSCTRGIAKQRIIGVGEVLDRGDKVPSMFMTNVWTPPNPSTIHHCSSTYHEDFYYTLCAVSHVGDPILNSTSWTESLSLIRLAVRPKSDSGDYNQKYIAITKVERGKYDKVMPYGPSGIKQGDTLYFPAVGFLPRTEFQYNDSNCPIIHCKYSKAENCRLSMGVNSKSHYILRSGLLKYNLSLGGDIILQFIEIADNRLTIGSPSKIYNSLGQPVFYQASYSWDTMIKLGDVDTVDPLRVQWRNNSVISRPGQSQCPRFNVCPEVCWEGTYNDAFLIDRLNWVSAGVYLNSNQTAENPVFAVFKDNEILYQVPLAEDDTNAQKTITDCFLLENVIWCISLVEIYDTGDSVIRPKLFAVKIPAQCSES"}}, "molecular_target": "the molecule itself", "assay": "gradient fixation ultracentrifugation", "note": "Where “and” joins values, the source holds several entries; their conditions need not be identical. Equal entries are not always repeated.", "data": [{"protein": "B1", "values": [{"measurement": "stoichiometry N", "value": "2 and 4"}]}]}
